According to the supplement of paper PMC12042874:
± gives the uncertainty stated by the source.

Test: amyloid nucleation score (Sup35N fusion, yeast selection) (log enrichment); library NNK3; higher = more nucleation; inactive = no reads after selection
Procedure, shortened: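 Three technical output replicates were used for random libraries. Psi-negative yeast expressing peptides of 20 random codons fused to Sup35N were induced with 100 μM copper sulfate for 24 hours and grown 7 days at 30°C on medium lacking adenine and uracil, and input and output plasmid inserts were Illumina-sequenced, excluding sequences with under 100 input reads. The nucleation score is the DiMSum log enrichment of output over input reads, centred on the mode score of non-aggregating sequences.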

Row | Substance | amyloid nucleation score
1 | TVFLDIISDVLILGGVRCRR | 1.26 ± 0.13
2 | TVGVTYIKVWNVPNILYRGC | 0.769 ± 0.15
3 | TVLCAC | inactive
4 | TVLCRYVAYLVVSANYLDEC | inactive
5 | TVMLRRTRYVVYTVYRVVDV | inactive
6 | TVMVKSSYGLNCFGRSF | 0.743 ± 0.13
7 | TVNHDAIRELTDTSTDIFMS | inactive
8 | TVPFTPIICESVFSD | inactive
9 | TVPVSSCGGLRNEPHDVRFG | inactive
10 | TVRFEGIGSHVRHTFCALDF | inactive
11 | TVRGEVVGPSDNREKIQKQW | inactive
12 | TVVMWSSKDREVDSIDMSFV | inactive
13 | TVYLACIC | inactive
14 | TVYSRHIDRGYWIADGCSRV | inactive
15 | TWCFDSACNANGTWR | inactive
16 | TWDICFSTLFLMPRMWFGHL | inactive
17 | TWELHV | -0.428 ± 1
18 | TWLGLLCREGSSNWV | inactive
19 | TWRKGVSVLVLSGFVVTNQR | inactive
20 | TWSACPTLCLD | -0.392 ± 0.98
21 | TWSSLFMIFQYTCAGCWDFK | 1.52 ± 0.068
22 | TWTMDSSLWMLWAVQVVEGR | inactive
23 | TYGGLFLVHTVYVVALNWVR | inactive

Row | Substance | amyloid nucleation score
24 | TYGSVNCVSLMCSVVVLFAM | inactive
25 | TYHWLNRGYRMGSLENRLLK | inactive
26 | TYLGDSFSILHLIQGDWFIE | inactive
27 | TYTFLSPVIDYKLYVYQCRT | 1.72 ± 0.067
28 | VACRVVGNSSVWVFRRHVEN | inactive
29 | VAETYLRTA | inactive
30 | VAFFSGWQIVVLFMKVL | inactive
31 | VAGSRCMDAWVKWCMVIRMF | 0.247 ± 0.25
32 | VARIIYQRIW | inactive
33 | VARPCFRERNHSPI | inactive
34 | VARSSQSISSMHMTMRYKCA | inactive
35 | VASSKQYLGTVTYLDGVA | inactive
36 | VATKQVVQGLMSPNN | inactive
37 | VCFFGLYVLKDN | inactive
38 | VCHLWSLTVYGAVFQHLNFM | inactive
39 | VCIVVGARGGGYVLRTPLRG | inactive
40 | VCKVTFMCAFRHDYSKRYYG | 0.35 ± 0.48
41 | VCLCNIRDMAG | inactive
42 | VCNSYCMPRPRILQSQGGMG | inactive
43 | VCREGLRDSRSAGGFFSYII | inactive
44 | VCSFCCFGTVRSL | 2.1 ± 0.058
45 | VCSLVLWSLSSWWTRYGTLR | inactive
46 | VCSSINPFQNMTSFKVWIKS | inactive

Row | Substance | amyloid nucleation score
47 | VCTKWGQYFCPYPVLCGWVR | inactive
48 | VCVVWNIVDQAYNMW | 0.253 ± 0.34
49 | VDETPSSHMSIPVMERVLCG | inactive
50 | VDHGRD | inactive
51 | VDIGYQMQGFLGICSDY | inactive
52 | VDIVRVSCEALSLATDCQFL | inactive
53 | VDNCIWLFLSTFYDGCVVML | inactive
54 | VDNHACPWTGGLHFRKLWNG | inactive
55 | VDNWFVFFYGYSGLLYGSHY | inactive
56 | VDRVYTLREFEVHGGTWFGV | inactive
57 | VDRYLCNFSGGTLYGSLSQD | inactive
58 | VDVCITFCWIARLMV | inactive
59 | VDYKLFNFDGVCITTVFVHY | 2.24 ± 0.095
60 | VEAEHYSRRNEKVFRSNMKW | inactive
61 | VEELKYRHNALNFRKNVQSL | inactive
62 | VEEYHNQ | 0.858 ± 0.13
63 | VEHDNKGISQAAVMFG | inactive
64 | VEHFNGHTRTVGCLFKRDLR | inactive
65 | VERHFAVDERP | -0.682 ± 2.5
66 | VFECLTFF | -0.872 ± 1
67 | VFESCEYSRQVVGNFRDEM | inactive
68 | VFFAVF | inactive
69 | VFGGNVIKSYVKITFQPGFD | 2.22 ± 0.061

Row | Substance | amyloid nucleation score
70 | VFGKCLCTNCLEEVCIRFDL | inactive
71 | VFKSSGPAVTSYWY | inactive
72 | VFLACNYFILSRNDLKWGYP | 2.56 ± 0.06
73 | VFLILFVLPLFYLNDSPGCA | inactive
74 | VFLVTSRVNIRCVVLHIINE | 1.08 ± 0.11
75 | VFMIVRQEGSSDFFFDFSSV | 1.42 ± 0.11
76 | VFNFFYAEMGLMIKFWIDNL | 1.08 ± 0.081
77 | VFNSSKDLVSEKEPLRYMIG | inactive
78 | VFQRVNISVCINVVKFMSSM | 1.65 ± 0.069
79 | VFSDHVLSF | inactive
80 | VFSKSLGI | inactive
81 | VFTFFSMCMTPSYYPCRLAC | inactive
82 | VFTPLCAYVVGYLYEVCGDD | inactive
83 | VFVKCWNVGSCIATDEYMSE | 2.2 ± 0.078
84 | VFVTRYKTKTPCLMTVRKEL | inactive
85 | VFWLKVSVSLFPVLYGRS | inactive
86 | VFYGLYF | inactive
87 | VGAHSYHVRTPDTES | 0.221 ± 0.47
88 | VGDVKAISVGCVGVLEFSAA | inactive
89 | VGEVGGYGEFAE | inactive
90 | VGGFFTSYKNYTK | 0.671 ± 0.27
91 | VGGFKTILSIRRAAKCLCVG | inactive
92 | VGGYI | inactive

Row | Substance | amyloid nucleation score
93 | VGHSNNQFSGFEMCHDNTLL | inactive
94 | VGLLVMSVGIERTLWE | inactive
95 | VGNFSFD | 0.845 ± 0.16
96 | VGNLGS | inactive
97 | VGNSHASIHPCKVICSLACD | inactive
98 | VGQYDTFGLRHHGGYRMRRG | inactive
99 | VGSGTQSWVRNEMRSMLDLW | inactive
100 | VGSLVHLGLGWIRTLLLYGV | inactive
101 | VHELIDHKMKMIGLVFGLSI | inactive
102 | VHIYSCYTRALDGNGAHSNN | inactive
103 | VHLNCCTVLKEVRLFT | 0.78 ± 0.26
104 | VHTYLSAEWLVFPRHFAVYK | inactive
105 | VIARDDINCVRDGGQGLQIS | inactive
106 | VICFFTTNAEHLQFLV | inactive
107 | VIFTIHNGT | inactive
108 | VIFVGFWQWYSYISELDCNP | inactive
109 | VIGGVEREQQDRLKL | inactive
110 | VIKSIWQSYGRKRSYLDMSI | inactive
111 | VILMEDKSLMSWTRTIIVSM | inactive
112 | VILNCR | inactive
113 | VINKRRWTSNGNCILEVRHG | inactive
114 | VKAVLY | inactive
115 | VKFVCKAELLDLT | inactive

Row | Substance | amyloid nucleation score
116 | VKIFS | inactive
117 | VKLFKVPLVLSMRL | inactive
118 | VKNFLGY | inactive
119 | VKSFFSKGSCDNDTNINRRS | inactive
120 | VKTRTIRVSH | inactive
121 | VKVFFPIVRCDTYHIYKQWG | 2.51 ± 0.053
122 | VLACSHWLMLSRTKYMMRIV | inactive
123 | VLANGKTSELRELKVHLLAG | -0.274 ± 1.1
124 | VLCCLDYIYPVGALGYYACI | inactive
125 | VLDFRRPRNISRS | inactive
126 | VLDLCDVY | inactive
127 | VLEYHTQPWGLAQRQTWLSG | inactive
128 | VLFINACYPLIISYQ | 1.97 ± 0.066
129 | VLFSGFFYLSDNYKLMGFVH | inactive
130 | VLGSRVKGDYCRCLEMECIW | inactive
131 | VLGVVT | inactive
132 | VLISVLSRLRCMSGGLYTPN | inactive
133 | VLIYDVCCALNLCCGFRTFG | 1.77 ± 0.081
134 | VLLARIDAVFITVLR | 1.25 ± 0.12
135 | VLLFC | inactive
136 | VLLFLTFMYSLSFWSMLLRG | inactive
137 | VLLSNNRILYETFL | inactive
138 | VLLSRMIYALPGYSVL | 1.93 ± 0.075

Row | Substance | amyloid nucleation score
139 | VLLTVECLFYSS | inactive
140 | VLLYDECMMFVNSLMFTNSE | -0.501 ± 0.66
141 | VLNDFMCDFGSWPRVIVIRT | inactive
142 | VLRQDISDDQSEAPEMNPHR | inactive
143 | VLRSAYAALFLNRFSRFDCR | inactive
144 | VLRSNKYRITMGMGKKFPAL | inactive
145 | VLSVSLNACTIGWST | 1.34 ± 0.1
146 | VLSVWDHLYLRNSSCAPTYR | -0.641 ± 1.4
147 | VLVICWFRDDGYSVFLCCQT | inactive
148 | VLVNGSGRNWEYYISRRFFF | inactive
149 | VLVVLDVRRGTDLCTF | inactive
150 | VLVVPKQVTWEVGF | inactive
151 | VMCLVSRPPQWSVLDVSTIM | inactive
152 | VMCMCCISVHSTLMFLDITN | 2.85 ± 0.063
153 | VMDVEIGSASSLYKRTSTSE | inactive
154 | VMIKSC | inactive
155 | VMRALL | inactive
156 | VMRGASYFPTELADDDLMPG | inactive
157 | VMRLHRCKELVCDSIYTLRG | inactive
158 | VMVSYG | inactive
159 | VMYGEVSDTYMAREICKFSA | inactive
